Experimental data published in patent publication US20230134571A1 (INTERNATIONAL AIDS VACCINE INITIATIVE, published 2023).

Columns and labels:
Assay in all cases: cell-based or functional assay
[1] = target: HIV Env of isolate SC05_8C11_2344 (clade B) (HIV)
[2] = target: HIV Env of isolate 0815.v3.c3 (clade ACD) (HIV)
[3] = target: HIV Env of isolate X1193_C1 (clade G) (HIV)
[4] = target: HIV Env of isolate CAAN5342.A2 (clade B) (HIV)
[5] = target: HIV Env of isolate 62357_14_D3_4589 (clade B) (HIV)
[6] = target: HIV Env of isolate BJOX015000.11.5 (clade AE) (HIV)
[7] = target: HIV Env of isolate 0260.v5.c36 (clade A) (HIV)
[8] = target: HIV Env of isolate ZM53M.PB12 (clade C) (HIV)
[9] = target: HIV Env of isolate HIV-16055-2.3 (clade C) (HIV)
[10] = target: HIV Env of isolate AC10.0.29 (clade B) (HIV)
[11] = target: HIV Env of isolate 3301.v1.c24 (clade AC) (HIV)
[12] = target: HIV Env of isolate 620345.c01 (clade AE) (HIV)
[13] = target: HIV Env of isolate CNE17 (clade BC) (HIV)
[14] = target: HIV Env of isolate WEAU_d15_410_5017 (clade B) (HIV)
[15] = target: HIV Env of isolate 6535.3 (clade B) (HIV)
[16] = target: HIV Env of isolate C3347.c11 (clade AE) (HIV)
[17] = target: HIV Env of isolate CNE52 (clade BC) (HIV)
[18] = target: HIV Env of isolate QH0692.42 (clade B) (HIV)
[19] = target: HIV Env of isolate ZM214M.PL15 (clade C) (HIV)
[20] = target: HIV Env of isolate X2088_C9 (clade G) (HIV)
[21] = target: HIV Env of isolate Q461.e2 (clade A) (HIV)
[22] = target: HIV Env of isolate R3265.c06 (clade AE) (HIV)
[23] = target: HIV Env of isolate T211-9 (clade AG) (HIV)
[24] = target: HIV Env of isolate 249MB10 (clade C) (HIV)
[25] = target: HIV Env of isolate T257-31 (clade AG) (HIV)
[26] = target: HIV Env of isolate ZM249M.PL1 (clade C) (HIV)
[27] = target: HIV Env of isolate CAP45.2.00.G3 (clade C) (HIV)

B1: PGDM1400 (antibody, V domains shown)
VH: QVHLTQSGPEVRKPGTSVKVSCKAPGNTLKTYDLHWVRSVPGQGLQWMGWISHEGDKKVIVERFKAKVTIDWDRSTNTAYLQLSGLTSGDTAVYYCAKGSKHRLRDYALYDDDGALNWAVDVDYLSNLEFWGQGTAVTVSS
VL: DFVLTQSPHSLSVTPGESASISCKSSHSLIHGDRNNYLAWYVQKPGRSPQLLIYLASSRASGVPDRFSGSGSDKDFTLKISRVETEDVGTYYCMQGRESPWTFGQGTKVDIK
IC50 (µg/ml) with constrains [1]: 4.46 µg/mL
IC50 (µg/ml) with constrains [2]: > 100 µg/mL
IC80 (µg/ml) with constrains [2]: > 100 µg/mL
IC50 (µg/ml) with constrains [3]: 0.094 µg/mL
IC50 (µg/ml) with constrains [4]: > 100 µg/mL
IC50 (µg/ml) with constrains [5]: > 100 µg/mL
IC50 (µg/ml) with constrains [6]: 1.05 µg/mL
IC80 (µg/ml) with constrains [6]: 4.21 µg/mL
IC50 (µg/ml) with constrains [7]: 0.035 µg/mL
IC80 (µg/ml) with constrains [7]: 0.14 µg/mL
IC50 (µg/ml) with constrains [8]: 0.009 µg/mL
IC50 (µg/ml) with constrains [9]: 0.003 µg/mL
IC50 (µg/ml) with constrains [10]: 0.549 µg/mL
IC50 (µg/ml) with constrains [11]: 0.131 µg/mL
IC80 (µg/ml) with constrains [11]: 0.523 µg/mL
IC50 (µg/ml) with constrains [12]: > 100 µg/mL
IC80 (µg/ml) with constrains [12]: > 100 µg/mL
IC50 (µg/ml) with constrains [13]: 0.005 µg/mL
IC50 (µg/ml) with constrains [14]: 0.075 µg/mL
IC50 (µg/ml) with constrains [15]: > 100 µg/mL
IC50 (µg/ml) with constrains [16]: 0.015 µg/mL
IC80 (µg/ml) with constrains [16]: 0.061 µg/mL
IC50 (µg/ml) with constrains [17]: > 100 µg/mL
IC50 (µg/ml) with constrains [18]: > 100 µg/mL
IC50 (µg/ml) with constrains [19]: > 100 µg/mL
IC50 (µg/ml) with constrains [20]: > 100 µg/mL
IC50 (µg/ml) with constrains [21]: 0.143 µg/mL
IC80 (µg/ml) with constrains [21]: 0.572 µg/mL
IC50 (µg/ml) with constrains [22]: 0.019 µg/mL
IC80 (µg/ml) with constrains [22]: 0.075 µg/mL
IC50 (µg/ml) with constrains [23]: 0.058 µg/mL
IC80 (µg/ml) with constrains [23]: 0.234 µg/mL
IC50 (µg/ml) with constrains [24]: 0.021 µg/mL
IC50 (µg/ml) with constrains [25]: 0.138 µg/mL
IC80 (µg/ml) with constrains [25]: 0.552 µg/mL
IC50 (µg/ml) with constrains [26]: 0.025 µg/mL
IC50 (µg/ml) with constrains [27]: 0.001 µg/mL
